Results reported in US20190177730.

Assays:
[1] = target: T1, PCSK9 D374Y D374Y (Homo sapiens) (UniProt Q8NBP7+Q8NBP7); assay: filter; details: all C = PP-dC (5-position), all U = Nap-dU (5-position); aptamer identity per figure legend; text names 11733-198
[2] = target: T1, PCSK9 D374Y D374Y (Homo sapiens); assay: inhibition; details: all C = PP-dC (5-position), all U = Nap-dU (5-position); blocks PCSK9 D374Y binding to LDL-R, room temperature; text names 11733-198

T1 sequence (Q8NBP7 whole entry, stated change not applied, chain 1 of 2): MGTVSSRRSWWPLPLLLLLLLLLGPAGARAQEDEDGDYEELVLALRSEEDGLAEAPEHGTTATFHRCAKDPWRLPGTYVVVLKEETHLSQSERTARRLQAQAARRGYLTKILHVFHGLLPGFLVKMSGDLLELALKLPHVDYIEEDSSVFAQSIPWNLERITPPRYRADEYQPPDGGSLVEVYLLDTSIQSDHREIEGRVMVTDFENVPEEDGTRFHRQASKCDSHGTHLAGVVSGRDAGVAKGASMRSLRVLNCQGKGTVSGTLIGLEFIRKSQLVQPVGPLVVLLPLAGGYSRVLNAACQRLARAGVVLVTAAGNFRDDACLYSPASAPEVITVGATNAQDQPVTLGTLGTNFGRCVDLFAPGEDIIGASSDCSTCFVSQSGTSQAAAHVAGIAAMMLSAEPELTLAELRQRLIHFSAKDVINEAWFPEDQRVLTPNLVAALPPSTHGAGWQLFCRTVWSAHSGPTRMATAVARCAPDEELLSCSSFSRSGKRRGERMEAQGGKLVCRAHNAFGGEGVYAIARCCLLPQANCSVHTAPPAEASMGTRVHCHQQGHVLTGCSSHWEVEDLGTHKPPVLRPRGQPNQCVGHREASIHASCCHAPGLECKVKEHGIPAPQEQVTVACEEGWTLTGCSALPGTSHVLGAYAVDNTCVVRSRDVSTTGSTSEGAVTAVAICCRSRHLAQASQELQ
T1 sequence (Q8NBP7 whole entry, stated change not applied, chain 2 of 2): as the sequence (Q8NBP7 whole entry, stated change not applied, chain 1 of 2) above

Sequence: AACGUACUUUAAGGCCUAUUGAGGAAACUC [11733-44 (SL1063)]
- Kd [1]: 0.0052 nM
- EC50 [2]: 3.6 nM
